From IntAct's records for PubMed 32296183 come the findings set out here.

First the molecules themselves.
B1: Catenin alpha-3 (Homo sapiens), Q9UI47-2 (parent)
chain: MSAETPITLNIDPQDLQVQTFTVEKLLEPLIIQVTTLVNCPQNPSSRKKGRSKRASVLLASVEEATWNLLDKGEKIAQEATVLKDELTASLEEVRKESEALKVSAERFTDDPCFLPKREAVVQAARALLAAVTRLLILADMIDVMCLLQHVSAFQRTFESLKNVANKSDLQKTYQKLGKELENLDYLAFKRQQDLKSPNQRDEIAGARASLKENSPLLHSICSACLEHSDVASLKASKDTVCEEIQNALNVISNASQGIQNMTTPPEPQAATLGSALDELENLIVLNPLTVTEEEIRPSLEKRLEAIISGAALLADSSCTRDLHRERIIAECNAIRQALQDLLSEYMNNAGKKERSNTLNIALDNMCKKTRDLRRQLRKAIIDHVSDSFLDTTVPLLVLIEAAKNGREKEIKEYAAIFHEHTSRLVEVANLACSMSTNEDGIKIVKIAANHLETLCPQIINAALALAARPKSQAVKNTMEMYKRTWENHIHVLTEAVDDITSIDDFLAVSGMFLFF
partner: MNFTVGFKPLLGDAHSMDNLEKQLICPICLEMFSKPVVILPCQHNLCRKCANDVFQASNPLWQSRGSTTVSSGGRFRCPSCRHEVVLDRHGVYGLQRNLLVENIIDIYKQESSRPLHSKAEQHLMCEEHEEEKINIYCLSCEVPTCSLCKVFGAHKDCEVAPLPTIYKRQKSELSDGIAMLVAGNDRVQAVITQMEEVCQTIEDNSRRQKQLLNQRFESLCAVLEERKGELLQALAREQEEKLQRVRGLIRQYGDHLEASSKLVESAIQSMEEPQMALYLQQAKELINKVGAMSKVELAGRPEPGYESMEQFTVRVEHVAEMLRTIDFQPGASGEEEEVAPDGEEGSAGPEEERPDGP
B2: Catenin alpha-3 (Homo sapiens), Q9UI47-2 (parent)
chain: B1 chain
partner: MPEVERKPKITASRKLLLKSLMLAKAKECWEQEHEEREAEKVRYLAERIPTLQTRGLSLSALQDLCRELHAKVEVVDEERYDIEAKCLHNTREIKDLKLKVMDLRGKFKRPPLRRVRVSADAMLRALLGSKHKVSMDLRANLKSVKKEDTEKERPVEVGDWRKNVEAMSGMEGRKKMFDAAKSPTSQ
B3: Succinate--CoA ligase [ADP-forming] subunit beta, mitochondrial (Homo sapiens), Q9P2R7 (parent)
chain: MAASMFYGRLVAVATLRNHRPRTAQRAAAQVLGSSGLFNNHGLQVQQQQQRNLSLHEYMSMELLQEAGVSVPKGYVAKSPDEAYAIAKKLGSKDVVIKAQVLAGGRGKGTFESGLKGGVKIVFSPEEAKAVSSQMIGKKLFTKQTGEKGRICNQVLVCERKYPRREYYFAITMERSFQGPVLIGSSHGGVNIEDVAAESPEAIIKEPIDIEEGIKKEQALQLAQKMGFPPNIVESAAENMVKLYSLFLKYDATMIEINPMVEDSDGAVLCMDAKINFDSNSAYRQKKIFDLQDWTQEDERDKDAAKANLNYIGLDGNIGCLVNGAGLAMATMDIIKLHGGTPANFLDVGGGATVHQVTEAFKLITSDKKVLAILVNIFGGIMRCDVIAQGIVMAVKDLEIKIPVVVRLQGTRVDDAKALIADSGLKILACDDLDEAARMVVKLSEIVTLAKQAHVDVKFQLPI
partner: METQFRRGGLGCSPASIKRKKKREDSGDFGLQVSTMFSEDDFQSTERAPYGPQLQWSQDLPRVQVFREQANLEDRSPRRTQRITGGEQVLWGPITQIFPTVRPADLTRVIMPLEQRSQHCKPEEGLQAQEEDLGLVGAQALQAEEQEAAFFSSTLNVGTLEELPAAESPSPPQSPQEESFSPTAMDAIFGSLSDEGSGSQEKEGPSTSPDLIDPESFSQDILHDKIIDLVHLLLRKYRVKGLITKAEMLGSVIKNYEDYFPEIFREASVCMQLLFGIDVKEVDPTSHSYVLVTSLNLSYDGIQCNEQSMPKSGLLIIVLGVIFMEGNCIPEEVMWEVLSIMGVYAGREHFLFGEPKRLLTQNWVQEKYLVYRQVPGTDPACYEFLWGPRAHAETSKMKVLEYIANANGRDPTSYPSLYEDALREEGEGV
B4: Golgi SNAP receptor complex member 2 (Homo sapiens), O14653 (parent)
chain: MDPLFQQTHKQVHEIQSCMGRLETADKQSVHIVENEIQASIDQIFSRLERLEILSSKEPPNKRQNARLRVDQLKYDVQHLQTALRNFQHRRHAREQQERQREELLSRTFTTNDSDTTIPMDESLQFNSSLQKVHNGMDDLILDGHNILDGLRTQRLTLKGTQKKILDIANMLGLSNTVMRLIEKRAFQDKYFMIGGMLLTCVVMFLVVQYLT
partner: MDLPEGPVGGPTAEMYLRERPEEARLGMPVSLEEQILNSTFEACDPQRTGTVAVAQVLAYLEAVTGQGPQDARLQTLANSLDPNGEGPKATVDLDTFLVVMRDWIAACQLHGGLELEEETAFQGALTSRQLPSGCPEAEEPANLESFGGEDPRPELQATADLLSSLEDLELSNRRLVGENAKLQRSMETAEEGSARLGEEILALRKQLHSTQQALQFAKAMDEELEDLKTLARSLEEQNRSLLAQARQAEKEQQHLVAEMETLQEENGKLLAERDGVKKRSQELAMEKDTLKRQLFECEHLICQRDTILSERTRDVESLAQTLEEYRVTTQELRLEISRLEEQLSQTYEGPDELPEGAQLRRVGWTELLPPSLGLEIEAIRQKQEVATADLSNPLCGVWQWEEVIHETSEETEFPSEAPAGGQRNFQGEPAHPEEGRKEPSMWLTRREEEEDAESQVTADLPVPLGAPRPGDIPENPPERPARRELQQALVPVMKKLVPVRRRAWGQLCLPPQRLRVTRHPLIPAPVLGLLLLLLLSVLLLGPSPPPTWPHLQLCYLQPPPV
B5: Catenin alpha-3 (Homo sapiens), Q9UI47-2 (parent)
chain: B1 chain
partner: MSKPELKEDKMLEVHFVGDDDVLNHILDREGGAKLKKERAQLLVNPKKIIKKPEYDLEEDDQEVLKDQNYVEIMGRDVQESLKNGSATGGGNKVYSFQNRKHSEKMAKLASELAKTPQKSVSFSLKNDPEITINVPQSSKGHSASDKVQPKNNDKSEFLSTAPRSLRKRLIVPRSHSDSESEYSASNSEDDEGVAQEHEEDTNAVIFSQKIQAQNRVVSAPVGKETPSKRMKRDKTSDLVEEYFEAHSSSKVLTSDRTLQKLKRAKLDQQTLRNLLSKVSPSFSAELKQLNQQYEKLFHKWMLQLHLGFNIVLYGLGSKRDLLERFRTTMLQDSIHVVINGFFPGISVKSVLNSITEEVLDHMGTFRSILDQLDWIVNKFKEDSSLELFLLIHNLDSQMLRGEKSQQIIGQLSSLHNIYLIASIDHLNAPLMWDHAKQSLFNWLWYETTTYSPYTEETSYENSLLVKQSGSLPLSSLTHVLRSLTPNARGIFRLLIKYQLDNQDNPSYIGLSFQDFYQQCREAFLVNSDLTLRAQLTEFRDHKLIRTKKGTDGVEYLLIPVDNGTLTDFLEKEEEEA

Variants of B1 are the subject of the first assay. The conditions noted are these: with tri54_human TRIM54, Q9BYV2.
Turning to MSAETPITLNIDPQDLQVQTFTVEKLLEPLIIQVTTLVNCPQNPSSRKKGRSKRASVLLASVEEATWNLLDKGEKIAQEATVLKDELTASLEEDRKESEALKVSAERFTDDPCFLPKREAVVQAARALLAAVTRLLILADMIDVMCLLQHVSAFQRTFESLKNVANKSDLQKTYQKLGKELENLDYLAFKRQQDLKSPNQRDEIAGARASLKENSPLLHSICSACLEHSDVASLKASKDTVCEEIQNALNVISNASQGIQNMTTPPEPQAATLGSALDELENLIVLNPLTVTEEEIRPSLEKRLEAIISGAALLADSSCTRDLHRERIIAECNAIRQALQDLLSEYMNNAGKKERSNTLNIALDNMCKKTRDLRRQLRKAIIDHVSDSFLDTTVPLLVLIEAAKNGREKEIKEYAAIFHEHTSRLVEVANLACSMSTNEDGIKIVKIAANHLETLCPQIINAALALAARPKSQAVKNTMEMYKRTWENHIHVLTEAVDDITSIDDFLAVSGMFLFF [V94D], the “effect of a mutation on the interaction” value is on record as “disrupting interaction strength”.

The next assay covers variants of B2. The following applies: with tnni1_human TNNI1, P19237.
As for MSAETPITLNIDPQDLQVQTFTVEKLLEPLIIQVTTLVNCPQNPSSRKKGRSKRASVLLASVEEATWNLLDKGEKIAQEATVLKDELTASLEEDRKESEALKVSAERFTDDPCFLPKREAVVQAARALLAAVTRLLILADMIDVMCLLQHVSAFQRTFESLKNVANKSDLQKTYQKLGKELENLDYLAFKRQQDLKSPNQRDEIAGARASLKENSPLLHSICSACLEHSDVASLKASKDTVCEEIQNALNVISNASQGIQNMTTPPEPQAATLGSALDELENLIVLNPLTVTEEEIRPSLEKRLEAIISGAALLADSSCTRDLHRERIIAECNAIRQALQDLLSEYMNNAGKKERSNTLNIALDNMCKKTRDLRRQLRKAIIDHVSDSFLDTTVPLLVLIEAAKNGREKEIKEYAAIFHEHTSRLVEVANLACSMSTNEDGIKIVKIAANHLETLCPQIINAALALAARPKSQAVKNTMEMYKRTWENHIHVLTEAVDDITSIDDFLAVSGMFLFF [V94D], the “effect of a mutation on the interaction” value is listed as “with no effect”.

In a further assay the parent is B3. The following applies: with magab_human MAGEA11, P43364.
With MAASMFYGRLVAVATLRNHRPRTAQRAAAQVLGSSGLFNNHGLQVQQQQQRNLSLHEYMSMELLQEAGVSVPKGYVAKSPDEAYAIAKKLGSKDVVIKAQVLAGGRGKGTFESGLKGRVKIVFSPEEAKAVSSQMIGKKLFTKQTGEKGRICNQVLVCERKYPRREYYFAITMERSFQGPVLIGSSHGGVNIEDVAAESPEAIIKEPIDIEEGIKKEQALQLAQKMGFPPNIVESAAENMVKLYSLFLKYDATMIEINPMVEDSDGAVLCMDAKINFDSNSAYRQKKIFDLQDWTQEDERDKDAAKANLNYIGLDGNIGCLVNGAGLAMATMDIIKLHGGTPANFLDVGGGATVHQVTEAFKLITSDKKVLAILVNIFGGIMRCDVIAQGIVMAVKDLEIKIPVVVRLQGTRVDDAKALIADSGLKILACDDLDEAARMVVKLSEIVTLAKQAHVDVKFQLPI [G118R], the “effect of a mutation on the interaction” value is reported as “disrupting interaction strength”.
Still for that read-out and setting: the value for MAASMFYGRLVAVATLRNHRPRTAQRAAAQVLGSSGLFNNHGLQVQQQQQRNLSLHEYMSMELLQEAGVSVPKGYVAKSPDEAYAIAKKLGSKDVVIKAQVLAGGRGKGTFESGLKGGVKIVFSPEEAKAVSSQMIGKKLFTKQTGEKGRICNQVLVCERKYPRREYYFAITMERSFQGPVLIGSSHGGVNIEDVAAESPEAIIKEPIDIEEGIKKEQALQLAQKMGFPPNIVESAAENMVKLYSLFLKYNATMIEINPMVEDSDGAVLCMDAKINFDSNSAYRQKKIFDLQDWTQEDERDKDAAKANLNYIGLDGNIGCLVNGAGLAMATMDIIKLHGGTPANFLDVGGGATVHQVTEAFKLITSDKKVLAILVNIFGGIMRCDVIAQGIVMAVKDLEIKIPVVVRLQGTRVDDAKALIADSGLKILACDDLDEAARMVVKLSEIVTLAKQAHVDVKFQLPI [D251N] was “disrupting interaction strength”.

The variants in the next assay derive from B4. The following applies: with kash5_human KASH5, Q8N6L0.
For MDPLFQQTHKQVHEIQSCMGRLETADKQSVHIVENEIQASIDQIFSRLERLEILSSKEPPNKRQNARLRVDQLKYDVQHLQTALRNFQHRRHAREQQERQREELLSRTFTTNDSDTTIPMDESLQFNSSLQKVHNGMDDLILDWHNILDGLRTQRLTLKGTQKKILDIANMLGLSNTVMRLIEKRAFQDKYFMIGGMLLTCVVMFLVVQYLT [G144W], the “effect of a mutation on the interaction” value is reported as “with no effect”.

In another assay the parent is B5. The following applies: with orc2_human ORC2, Q13416.
Consider MSAETPITLNIDPQDLQVQTFTVEKLLEPLIIQVTTLVNCPQNPSSRKKGRSKRASVLLASVEEATWNLLDKGEKIAQEATVLKDELTASLEEDRKESEALKVSAERFTDDPCFLPKREAVVQAARALLAAVTRLLILADMIDVMCLLQHVSAFQRTFESLKNVANKSDLQKTYQKLGKELENLDYLAFKRQQDLKSPNQRDEIAGARASLKENSPLLHSICSACLEHSDVASLKASKDTVCEEIQNALNVISNASQGIQNMTTPPEPQAATLGSALDELENLIVLNPLTVTEEEIRPSLEKRLEAIISGAALLADSSCTRDLHRERIIAECNAIRQALQDLLSEYMNNAGKKERSNTLNIALDNMCKKTRDLRRQLRKAIIDHVSDSFLDTTVPLLVLIEAAKNGREKEIKEYAAIFHEHTSRLVEVANLACSMSTNEDGIKIVKIAANHLETLCPQIINAALALAARPKSQAVKNTMEMYKRTWENHIHVLTEAVDDITSIDDFLAVSGMFLFF [V94D], for which the “effect of a mutation on the interaction” value was “disrupting interaction strength”.
